According to patent US20190119348A1, “PARATHYROID HORMONE RECEPTOR 1 ANTAGONIST AND INVERSE AGONIST POLYPEPTIDES AND METHODS OF THEIR USE” (The General Hospital Corporation, priority 2016, published 2019):
Read-outs that look alike come from different tables or passages of the source. Where a SMILES comes first, the peptide text is derived from it. Where no end group is shown, it is not given here. [ ]: non-standard residue; d: D form. Nle = CCCC[C@H](N)C(=O)O

T1: endogenous hPTHR1 (Homo sapiens, UniProt Q03431)
T1 construct: Saos-2, in which is endogenously expressed the hPTHR1; endogenous in cells
T1 sequence (Q03431 27-593): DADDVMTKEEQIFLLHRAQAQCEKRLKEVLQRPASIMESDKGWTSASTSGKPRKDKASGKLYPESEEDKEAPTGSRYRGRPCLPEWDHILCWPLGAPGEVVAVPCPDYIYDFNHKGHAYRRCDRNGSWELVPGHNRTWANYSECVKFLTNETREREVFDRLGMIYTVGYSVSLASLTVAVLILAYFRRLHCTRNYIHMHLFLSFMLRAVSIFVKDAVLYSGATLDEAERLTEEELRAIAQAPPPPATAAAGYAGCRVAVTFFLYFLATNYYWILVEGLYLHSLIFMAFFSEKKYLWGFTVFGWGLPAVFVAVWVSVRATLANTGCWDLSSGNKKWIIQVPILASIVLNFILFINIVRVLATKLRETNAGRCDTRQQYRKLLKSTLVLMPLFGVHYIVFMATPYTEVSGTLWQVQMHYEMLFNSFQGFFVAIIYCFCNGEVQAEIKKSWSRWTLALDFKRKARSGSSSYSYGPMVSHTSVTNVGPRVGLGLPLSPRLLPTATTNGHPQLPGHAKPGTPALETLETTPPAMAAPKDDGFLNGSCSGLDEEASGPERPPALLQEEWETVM

T2: PTHR1 (Homo sapiens, UniProt Q03431)
T2 construct: expressed in transfected cells; host or cells: GP-2.3 (HEK-293 stably transfected with hPTHR1 and GloSensor)
T2 sequence (Q03431 27-593): T1 sequence (Q03431 27-593)

T3: human parathyroid hormone receptor 1 (hPTHR1) (human), Q03431
T3 chain: T1 sequence (Q03431 27-593)

B1: dW12, Y34-bPTH(7-34)-1894 (peptide)
chain: FMHNLWKHLSSMERVEWLRKKLQDVHNY
modifications: not checked
B2: dW12, W23-LA-PTH(5-36)-1949 (peptide)
chain: IQLMHQRWKWIQDARRRAWLHKLIAEIHTAEI
modifications: not checked
B3: LA-PTH(5-36)-2012 (peptide)
chain: IQLMHQRAKWIQDARRRAFLHKLIAEIHTAEI-NH2

Tests used:
endogenous hPTHR1 = molecular target: T1, endogenous hPTHR1; assay: Antagonism of PTH(1-34)- and PTHrP(1-36)-induced cAMP response (GloSensor) in SGS-72 cells; assay type: cell-based; conditions: PTH(1-34) 0.3 nM
Experimental: cAMP signaling was assessed in the HEK293-derived or SaOS2-derived cell lines stably expressing the luciferase-based GloSensorTM cAMP reporter ([…] al., Paper presented at: Novel Signaling Mechanisms and Bone Cell Biology 2014; Binkowski et al., Methods in molecular biology. 756:263-271). HEK-293 cells were further transfected to stably express the hPTHR1, hPTHR1-H223R, or hPTHR1-T410P. The cells were seeded into 96-well white plates and were assayed 24 to 48 hours post-confluency. Assays were performed at room temperature in CO2-independent culture media (Life Technologies, Corp., Carlsbad, Calif.) containing 0.1% BSA (CIDB). The cells were pre-loaded with luciferin (0.5 mM in CIDB) for 15 minutes, then PTH peptides were added at varying concentrations. cAMP-dependent luminescence was measured at two-minute intervals using a PerkinElmer Envision plate reader. The time at which maximum luminescence (cps) observed with agonist alone, typically at 10-20 minutes after agonist addition, was used to obtain data from wells containing antagonist with or without agonist, to thus generate antagonist ligand dose-response curves. The resulting cps values were then plotted against ligand concentration using GraphPad Prism 7.0 software and a four-parameter logistics curve fitting equation, which yielded parameters of inhibitory potency (pIC50). Pharmacological properties of the ligands were assessed in cells expressing the PTHR1 and the GloSensorTM cAMP reporter. The assays used GP-2.3 cells, derived from HEK293 cells by stable transfection with the hPTHR1 and GloSensorTM, as well as SGS-72 cells, which are derived from the human osteosarcoma cell line, Saos-2, in which is endogenously expressed the hPTHR1, by stable transfection with GloSensorTM. Binding of representative polypeptides to the PTHR1 was assessed in GP-2.3 cells by radioligand competition methods (FIGS. 1A and 1B, Table 3). […] In Table 5, antagonist assays were performed in SGS-72 cells (SaOS2 cells with stable GloSensorTM cAMP reporter) at room temperature. […] The mean (±sem) concentration of antagonist that inhibited the maximum agonist-induced response observed in the absence of antagonist (at 40 minutes) is reported in units of -log M (pIC50), and the corresponding nanomolar value is shown below each pIC50 value. Data are means of the number of seven experiments. The PTH(1-34)-induced maximum luminescence was 500,000 cps and the basal was 5,000 cps. TMR indicates Lys13 modified at epsilon amino function with TMR. The data are illustrated in FIG. 7A. […] Date are means (±SEM) of the number of separate experiments indicated by n.

PTHR1 = molecular target: T2, PTHR1; assay: Antagonism of PTH(1-34)-induced cAMP response (GloSensor) in GP-2.3 cells; assay type: cell-based
Experimental: cAMP signaling was assessed in the HEK293-derived or SaOS2-derived cell lines stably expressing the luciferase-based GloSensor™ cAMP reporter (Hattersley et al., Paper presented at: Novel Signaling Mechanisms and Bone Cell Biology 2014; Binkowski et al., Methods in molecular biology. 756:263-271). HEK-293 cells were further transfected to stably express the hPTHR1, hPTHR1-H223R, or hPTHR1-T410P. The cells were seeded into 96-well white plates and were assayed 24 to 48 hours post-confluency. Assays were performed at room temperature in CO2-independent culture media (Life Technologies, Corp., Carlsbad, Calif.) containing 0.1% BSA (CIDB). The cells were pre-loaded with luciferin (0.5 mM in CIDB) for 15 minutes, then PTH peptides were added at varying concentrations. cAMP-dependent luminescence was measured at two-minute intervals using a PerkinElmer Envision plate reader. The time at which maximum luminescence (cps) observed with agonist alone, typically at 10-20 minutes after agonist addition, was used to obtain data from wells containing antagonist with or without agonist, to thus generate antagonist ligand dose-response curves. The resulting cps values were then plotted against ligand concentration using GraphPad Prism 7.0 software and a four-parameter logistics curve fitting equation, which yielded parameters of inhibitory potency (pIC50).
Pharmacological properties of the ligands were assessed in cells expressing the PTHR1 and the GloSensor™ cAMP reporter. The assays used GP-2.3 cells, derived from HEK293 cells by stable transfection with the hPTHR1 and GloSensor™, as well as SGS-72 cells, which are derived from the human osteosarcoma cell line, Saos-2, in which is endogenously expressed the hPTHR1, by stable transfection with GloSensor™. Binding of representative polypeptides to the PTHR1 was assessed in GP-2.3 cells by radioligand competition methods (FIGS. 1A and 1B, Table 3).
[…] concentration of antagonist that inhibited the maximum response to PTH(1-34)-induced in the absence of antagonist (at ˜40 minutes) is reported in units of -log M (pIC50), and the corresponding nanomolar value is shown below each pIC50 value. Data are means of the number of experiments indicated (n). The PTH(1-34)-induced maximum luminescence was ˜80,000 cps and the basal was ˜1,000 cps. TMR indicates Lys13 modified at epsilon amino function with TMR, P vs. inhibition by dW12,Y34-bPTH(7-34).

[1] = molecular target: T3, human parathyroid hormone receptor 1 …; assay: radioligand competition on GP-2.3 cells (hPTHR1), tracer 125I-PTHrP(5-36), n=4
[2] = molecular target: T3, human parathyroid hormone receptor 1 …; assay: cell-based or functional assay
[3] = molecular target: T3, human parathyroid hormone receptor 1 …; assay: radioligand competition on GP-2.3 cells (hPTHR1), tracer 125I-PTH(1-34), n=4
hPTHR1-H223R (human) [4] = molecular target: hPTHR1-H223R (human) (UniProt Q03431); assay: cell-based or functional assay
hPTHR1-H223R (human) [5] = molecular target: hPTHR1-H223R (human) (UniProt Q03431); assay: cell-based or functional assay; remark: listed apart in the source

Row | Molecule | IC50 [1] [nM] | pIC50 [1] | IC50 (nanomolar value of the pIC50), antagonism of PTH(1-34)-induced cAMP response, GP-2.3 cells [2] [nM] | IC50 (nanomolar value of the pIC50), antagonism of PTH(1-34)-induced cAMP response, SGS-72 cells [2] [nM] | IC50 (nanomolar value of the pIC50), antagonism of PTHrP(1-36)-induced cAMP response, SGS-72 cells [2] [nM] | IC50, antagonism of PTH(1-34) (0.3 nM)-induced cAMP response, SGS-72 cells [2] [nM] | pIC50, antagonism of PTH(1-34) (0.3 nM)-induced cAMP response, SGS-72 cells [2] | pIC50, antagonism of PTH(1-34)-induced cAMP response (GloSensor), GP-2.3 cells [2] | pIC50, antagonism of PTH(1-34)-induced cAMP response, SGS-72 cells [2] | pIC50, antagonism of PTHrP(1-36)-induced cAMP response, SGS-72 cells [2] | IC50 [3] [nM] | pIC50 [3] | further results
1 | CCCC[C@H](NC(=O)[C@H](CC(C)C)NC(=O)[C@H](CCC(N)=O)NC(=O)[C@@H](N)[C@@H](C)CC)C(=O)N[C@@H](Cc1c[nH]cn1)C(=O)N[C@@H](CCC(N)=O)C(=O)N[C@@H](CCCNC(=N)N)C(=O)N[C@H](Cc1c[nH]c2ccccc12)C(=O)N[C@@H](CCCCN)C(=O)N[C@@H](Cc1c[nH]c2ccccc12)C(=O)N[C@H](C(=O)N[C@@H](CCC(N)=O)C(=O)N[C@@H](CC(=O)O)C(=O)N[C@@H](C)C(=O)N[C@@H](CCCNC(=N)N)C(=O)N[C@@H](CCCNC(=N)N)C(=O)N[C@@H](CCCNC(=N)N)C(=O)N[C@@H](C)C(=O)N[C@@H](Cc1c[nH]c2ccccc12)C(=O)N[C@@H](CC(C)C)C(=O)N[C@@H](Cc1c[nH]cn1)C(=O)N[C@@H](CCCCN)C(=O)N[C@@H](CC(C)C)C(=O)N[C@H](C(=O)N[C@@H](C)C(=O)N[C@@H](CCC(=O)O)C(=O)N[C@H](C(=O)N[C@@H](Cc1c[nH]cn1)C(=O)N[C@H](C(=O)N[C@@H](C)C(=O)N[C@@H](CCC(=O)O)C(=O)N[C@H](C(=O)N[C@@H](CS)C(N)=O)[C@@H](C)CC)[C@@H](C)O)[C@@H](C)CC)[C@@H](C)CC)[C@@H](C)CC [compound 1974, Nle8, dW12, W23, C37-LA-PTH(5-37)] (H-IQL[Nle]HQR[dW]KWIQDARRRAWLHKLIAEIHTAEIC-NH2; N-terminus assumed) |  |  |  |  |  |  |  |  |  |  |  |  | IC50 (endogenous hPTHR1; IC50 PTH(1-34) (Table 6, nanomolar value), antagonist pre-treatment 15 minutes): 4.39 nM; IC50 (PTHR1; inhibition of PTH(1-34)-induced maximum response, read-out: corresponding nanomolar value of pIC50 (Table 4) (converted)): 224 nM
2 | CC[C@H](C)[C@H](NC(=O)[C@H](CCC(=O)O)NC(=O)[C@H](CO)NC(=O)[C@@H](NC(=O)[C@@H](N)CO)C(C)C)C(=O)N[C@@H](CCC(N)=O)C(=O)N[C@@H](CC(C)C)C(=O)N[C@@H](CCSC)C(=O)N[C@@H](Cc1c[nH]cn1)C(=O)N[C@@H](CC(N)=O)C(=O)N[C@@H](CC(C)C)C(=O)NCC(=O)N[C@@H](CCCCN)C(=O)N[C@@H](Cc1c[nH]cn1)C(=O)N[C@@H](CC(C)C)C(=O)N[C@@H](CC(N)=O)C(=O)N[C@@H](CO)C(=O)N[C@@H](CCSC)C(=O)N[C@@H](CCC(=O)O)C(=O)N[C@@H](CCCNC(=N)N)C(=O)N[C@H](C(=O)N[C@@H](CCC(=O)O)C(=O)N[C@@H](Cc1c[nH]c2ccccc12)C(=O)N[C@@H](CC(C)C)C(=O)N[C@@H](CCCNC(=N)N)C(=O)N[C@@H](CCCCN)C(=O)N[C@@H](CCCCN)C(=O)N[C@@H](CC(C)C)C(=O)N[C@@H](CCC(N)=O)C(=O)N[C@@H](CC(=O)O)C(=O)N[C@H](C(=O)N[C@@H](Cc1c[nH]cn1)C(=O)N[C@@H](CC(N)=O)C(=O)N[C@@H](Cc1ccccc1)C(N)=O)C(C)C)C(C)C [compound 1923, PTH(1-34), reference compound] |  |  |  |  |  |  |  |  |  |  |  |  | PTH(1-34)-induced maximum luminescence (endogenous hPTHR1; basal ~5,000 cps): ~500,000 cps; PTH(1-34)-induced maximum luminescence (PTHR1; basal ~1,000 cps): ~80,000 cps
3 | B1 | 35.1 | 7.46 -log M | 377 | 5 | 5 | 14.5 | 7.84 -log M | 6.42 -log M | 8.31 -log M | 8.33 -log M | 28.6 | 7.54 -log M | pIC50, inhibition of the cAMP signal induced by PTH(1-34) (0.3 nM), SGS-72 cells [2]: 7.2 -log M; pIC50, inhibition of the cAMP signal induced by PTH(1-34) (1 nM), GP-2.3 cells [2]: 6.4 -log M
4 | B2 | 17.7 | 7.75 -log M | 101 | 1 | 1 | 1.45 | 8.84 -log M | 7 -log M | 9.11 -log M | 9.1 -log M | 22.3 | 7.65 -log M | Reduction of basal cAMP, % vehicle; After ligand washout; GHR-10 cells (hPTHR1-H223R (human) [4]): 30 % vehicle; Reduction of basal cAMP, % vehicle; Ligand @ -6M; GHR-10 cells (hPTHR1-H223R (human) [4]): 41 % vehicle; IC50, antagonism of PTHrP(1-36) (0.3 nM)-induced cAMP response, SGS-72 cells [2]: 1.21 nM; pIC50, antagonism of PTHrP(1-36) (0.3 nM)-induced cAMP response, SGS-72 cells [2]: 8.92 -log M; washout assay: inhibition of the cAMP response to agonist applied after antagonist pre-treatment and rinsing [2]: > 90%
5 | B3 |  |  |  |  |  |  |  |  |  |  |  |  | Reduction of basal cAMP, % vehicle; After ligand washout; GHR-10 cells (hPTHR1-H223R (human) [5]): -49 % vehicle; Reduction of basal cAMP, % vehicle; Ligand @ -6M; GHR-10 cells (hPTHR1-H223R (human) [5]): -15 % vehicle
